From article PMC4242082, “Mechanistic determinants of the directionality and energetics of active export by a heterodimeric ABC transporter” (Nature Communications, 2014) come the findings set out here.

Ends that are not written are not given here.

Substrate in data set [1]: Nc1ncnc2c1ncn2[C@@H]1O[C@H](COP(=O)(O)OP(=O)(O)OP(=O)(O)O)[C@@H](O)[C@H]1O
In words: ATP-dependent transport of RRYC(FL488)KSTEL in proteoliposomes. Type of data set: biochemical, Homo sapiens. Conditions: peptide 1 μM, Mg2+, pH 7.4, 37 °C. The text has this:
ATP-dependent transport of RRYC(FL488)KSTEL in proteoliposomes on TAP (TAP1/TAP2 complex; wt TAP) | the Michaelis–Menten kinetics for peptide transport by wt TAP and D674A/wt are equal

Data set [2] addresses wild-type TAP (human TAP1/TAP2 complex) (human) (UniProt Q03518).
The target of data set [3] is D674A/wt TAP complex (human TAP1 D674A with wt TAP2) (human) (UniProt Q03519).
Data set [4] concerns the molecule itself. The data set can be described thus: AUC; sedimentation velocity, with ATP; 33 μM protein, 40,000 r.p.m., 10 °C, 14 h; 20 mM Tris pH 8.0, 50 mM NaCl, 5 mM MgCl2; c(S) model (Sedfit).
Data set [5] has as its target P36370. The data set can be described thus: AUC; sedimentation velocity, with ADP; 33 μM protein, 40,000 r.p.m., 10 °C, 14 h; 20 mM Tris pH 8.0, 50 mM NaCl, 5 mM MgCl2; c(S) model (Sedfit).
Data set [6] concerns the molecule itself. The data set can be described thus: AUC; sedimentation equilibrium, with ADP; 12,000, 15,000 and 22,000 r.p.m., 10 °C; 3, 11 and 33 μM protein; 20 mM Tris pH 8.0, 50 mM NaCl, 5 mM MgCl2; monomer-dimer self-association model (SedPhat); dimer to monomers.
Data set [7] concerns the molecule itself. The data set can be described thus: AUC; sedimentation equilibrium, with ATP; 12,000, 15,000 and 22,000 r.p.m., 10 °C; 3, 11 and 33 μM protein; 20 mM Tris pH 8.0, 50 mM NaCl, 5 mM MgCl2; monomer-dimer self-association model (SedPhat); dimer to monomers.
For data set [8], the target named is P36370. The data set can be described thus: AUC; sedimentation velocity, with ATP; 33 μM protein, 40,000 r.p.m., 10 °C, 14 h; 20 mM Tris pH 8.0, 50 mM NaCl, 5 mM MgCl2; c(S) model (Sedfit).

B1: TAP (TAP1/TAP2 complex; wt TAP) (Homo sapiens) (protein)
chain 1: MASSRCPAPRGCRCLPGASLAWLGTVLLLLADWVLLRTALPRIFSLLVPTALPLLRVWAVGLSRWAVLWLGACGVLRATVGSKSENAGAQGWLAALKPLAAALGLALPGLALFRELISWGAPGSADSTRLLHWGSHPTAFVVSYAAALPAAALWHKLGSLWVPGGQGGSGNPVRRLLGCLGSETRRLSLFLVLVVLSSLGEMAIPFFTGRLTDWILQDGSADTFTRNLTLMSILTIASAVLEFVGDGIYNNTMGHVHSHLQGEVFGAVLRQETEFFQQNQTGNIMSRVTEDTSTLSDSLSENLSLFLWYLVRGLCLLGIMLWGSVSLTMVTLITLPLLFLLPKKVGKWYQLLEVQVRESLAKSSQVAIEALSAMPTVRSFANEEGEAQKFREKLQEIKTLNQKEAVAYAVNSWTTSISGMLLKVGILYIGGQLVTSGAVSSGNLVTFVLYQMQFTQAVEVLLSIYPRVQKAVGSSEKIFEYLDRTPRCPPSGLLTPLHLEGLVQFQDVSFAYPNRPDVLVLQGLTFTLRPGEVTALVGPNGSGKSTVAALLQNLYQPTGGQLLLDGKPLPQYEHRYLHRQVAAVGQEPQVFGRSLQENIAYGLTQKPTMEEITAAAVKSGAHSFISGLPQGYDTEVDEAGSQLSGGQRQAVALARALIRKPCVLILDDATSALDANSQLQVEQLLYESPERYSRSVLLITQHLSLVEQADHILFLEGGAIREGGTHQQLMEKKGCYWAMVQAPADAPE
chain 2: MRLPDLRPWTSLLLVDAALLWLLQGPLGTLLPQGLPGLWLEGTLRLGGLWGLLKLRGLLGFVGTLLLPLCLATPLTVSLRALVAGASRAPPARVASAPWSWLLVGYGAAGLSWSLWAVLSPPGAQEKEQDQVNNKVLMWRLLKLSRPDLPLLVAAFFFLVLAVLGETLIPHYSGRVIDILGGDFDPHAFASAIFFMCLFSFGSSLSAGCRGGCFTYTMSRINLRIREQLFSSLLRQDLGFFQETKTGELNSRLSSDTTLMSNWLPLNANVLLRSLVKVVGLYGFMLSISPRLTLLSLLHMPFTIAAEKVYNTRHQEVLREIQDAVARAGQVVREAVGGLQTVRSFGAEEHEVCRYKEALEQCRQLYWRRDLERALYLLVRRVLHLGVQMLMLSCGLQQMQDGELTQGSLLSFMIYQESVGSYVQTLVYIYGDMLSNVGAAEKVFSYMDRQPNLPSPGTLAPTTLQGVVKFQDVSFAYPNRPDRPVLKGLTFTLRPGEVTALVGPNGSGKSTVAALLQNLYQPTGGQVLLDEKPISQYEHCYLHSQVVSVGQEPVLFSGSVRNNIAYGLQSCEDDKVMAAAQAAHADDFIQEMEHGIYTDVGEKGSQLAAGQKQRLAIARALVRDPRVLILDEATSALDVQCEQALQDWNSRGDRTVLVIAHRLQTVQRAHQILVLQEGKLQKLAQL
notes: full-length heterodimer from Sf9 insect cells (baculovirus), purified and reconstituted in proteoliposomes, or in membranes
What is called Km is the substrate concentration at which the rate is half of its maximum. B1: in data set [1], the Km amounted to 99 ± 24 µM.
With RRYC(Atto633)KSTEL [Atto633-labelled peptide RRYC(AT633)KSTEL], the lumenal peptide concentration reached in proteoliposomes at high external peptide (for example 100 μM): trans-inhibition in data set [2] is less than 16 µM. In data set [3], this molecule returned an EC50 of lumenal peptide accumulation in proteoliposomes after 1 h at different external peptide concentrations, given as Kd of a low-affinity lumenal peptide-binding site of 10.7 µM and a lumenal peptide concentration reached in proteoliposomes at high external peptide (for example 100 μM): trans-inhibition of less than 16 µM.

B2: rat TAP1-NBD Walker B mutant (D645N) (domain or fragment)
chain: SPLSGSLAPLNMKGLVKFQDVSFAYPNHPNVQVLQGLTFTLYPGKVTALVGPNGSGKSTVAALLQNLYQPTGGKVLLDGEPLVQYDHHYLHTQVAAVGQEPLLFGRSFRENIAYGLTRTPTMEEITAVAMESGAHDFISGFPQGYDTEVGETGNQLSGGQRQAVALARALIRKPRLLILDNATSALDAGNQLRVQRLLYESPEWASRTVLLITQQLSLAERAHHILFLKEGSVCEQGTHLQLMERGGCYRSMVEALAAPSD
notes: Model system for NBD homodimerisation; also called Walker B D645N; hydrolysis-deficient Walker B mutant; source: E. coli BL21(DE3), purified (Ni-NTA, Superdex200)
What is called stoichiometry N is the number of molecules, sites or subunits per partner or assembly. In general, Kd refers to a measure of binding affinity in units of concentration. Low values mean a tighter complex, high ones a looser complex. For the molecule B2, the “stoichiometry N” value in data set [4] was 2. Besides, the results for the 2nd/1st ratio (dimer to monomer peaks) in data set [5] and in data set [8] were 0.68 and 2.61, respectively. The Kd in data set [6] was 111 µM; in data set [7] it was 22.4 µM.

B3: rat TAP1-NBD Walker B/D-loop double mutant (D645N/D651A) (domain or fragment)
chain: SPLSGSLAPLNMKGLVKFQDVSFAYPNHPNVQVLQGLTFTLYPGKVTALVGPNGSGKSTVAALLQNLYQPTGGKVLLDGEPLVQYDHHYLHTQVAAVGQEPLLFGRSFRENIAYGLTRTPTMEEITAVAMESGAHDFISGFPQGYDTEVGETGNQLSGGQRQAVALARALIRKPRLLILDNATSALAAGNQLRVQRLLYESPEWASRTVLLITQQLSLAERAHHILFLKEGSVCEQGTHLQLMERGGCYRSMVEALAAPSD
notes: D651A of rat TAP1 is equivalent to D674A of human TAP1; also called Walker B D645N/D-loop D651A; rat TAP1 NBD D645N/D651A; source: E. coli BL21(DE3), purified (Ni-NTA, Superdex200)
B3: the 2nd/1st ratio (dimer to monomer peaks) in data set [5] is 0.26; in data set [8], 0.11. Besides, the results for the Kd in data set [6] and in data set [7] were 164 µM and 170 µM, respectively.
